The values that follow come from PMC9765439, “Systems-Wide Dissection of Organic Acid Assimilation in Pseudomonas aeruginosa Reveals a Novel Path To Underground Metabolism” (mBio, 2022).

The series relates to T1, PrpR (His6-PrpR) (Pseudomonas aeruginosa PAO1?), ORF:9118ca87.
T1 sequence: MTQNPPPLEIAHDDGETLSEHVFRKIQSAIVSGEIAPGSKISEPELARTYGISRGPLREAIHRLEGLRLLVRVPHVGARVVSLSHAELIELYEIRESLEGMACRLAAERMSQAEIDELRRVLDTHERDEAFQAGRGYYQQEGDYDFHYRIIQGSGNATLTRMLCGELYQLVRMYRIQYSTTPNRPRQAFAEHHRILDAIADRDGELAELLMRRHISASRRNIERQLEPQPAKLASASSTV
As to the kind of experiment: EMSA. The note with it: 30 mM Tris-HCl pH 8.0, 120 mM KCl, 1 mM MnCl2, 1 mM MgCl2, 20% glycerol, 240 ug/mL BSA, 15.2 ug/mL poly(dI-dC), 21 C, 60 min; 6% PAGE in TBE. Background: In EMSA bound probe runs differently from free probe, usually more slowly.

As to “CTGCTTCATCACGTCGCCCATGCCGCAGGCGAAGTCGATCAGGCGCGGCAACACGTAACGGTCATAGATGCCCACGAAACTCTCTCCTGGCACAGCGGCTGGAGGGGAAAGCATAGACCAGCGATGCATTAGACGATTGTCGACAATCAAGCGACGAATGATTGACCCCACGCAATCCAGGCGGTAGCTTTCGCAAACATTGTCGACACATCGACCCGGACAGCCAGTACCATGACCCAGAACCCGCCCCCTCTCGAGATTGCCCATGAC (double strand) [prpR promoter (prpRp)]”, the binding entry was “binds”.
